Measured values taken from article PMC10350030 (bioRxiv, 2023).

Tests used:
[1] = molecular target: biotinylated-Aβ42 (Homo sapiens, UniProt P05067); assay: Single-molecule TIRF imaging of Cy3-CP on immobilized biotinylated Aβ42; format: binding
[2] = molecular target: Aβ42 (Homo sapiens, UniProt P05067); assay: Fluorescence polarization; format: binding; conditions: read-out: apparent Kd for the Aβ42/CP interaction; fluorescence polarization of FAM-Aβ42 with increasing concentrations of CP
[3] = Fluorescence spectra of FAM-Aβ42 during incubation in PBS; format: physicochemical; conditions: PBS buffer, 0 to 60 minutes, in the presence of CP

Chain of biotinylated-Aβ42 (P05067 672-713): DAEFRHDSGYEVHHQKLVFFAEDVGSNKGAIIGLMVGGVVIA
Chain of Aβ42 (P05067 672-713, one chain of several): as the sequence (P05067 672-713) above

TIRF image brightness of CP/Aβ versus CP alone ([1]; Cy3-labeled CP, imaging for 10 minutes): much higher | half-lifetime of stable binding ([1]; TIRF, 100 nM CP-Cy3, no Vc): ~62.3 s | half-lifetime of transient binding ([1]; TIRF, 100 nM CP-Cy3, no Vc): about 14.6 s | stable K(slow) of CP/Aβ binding ([1]; TIRF, 100 nM CP-Cy3, no Vc, unit not given): about 0.011 | half-lifetime of stable binding with Vc ([1]; TIRF, 100 nM CP-Cy3 with 250 μM Vc): 39.0 s | Kd [2]: 123 ± 6.7 nM
B1: ceruloplasmin (protein)
chain: KEKHYYIGIIETTWDYASDHGEKKLISVDTEHSNIYLQNGPDRIGRLYKKALYLQYTDETFRTTIEKPVWLGFLGPIIKAETGDKVYVHLKNLASRPYTFHSHGITYYKEHEGAIYPDNTTDFQRADDKVYPGEQYTYMLLATEEQSPGEGDGNCVTRIYHSHIDAPKDIASGLIGPLIICKKDSLDKEKEKHIDREFVVMFSVVDENFSWYLEDNIKTYCSEPEKVDKDNEDFQESNRMYSVNGYTFGSLPGLSMCAEDRVKWYLFGMGNEVDVHAAFFHGQALTNKNYRIDTINLFPATLFDAYMVAQNPGEWMLSCQNLNHLKAGLQAFFQVQECNKSSSKDNIRGKHVRHYYIAAEEIIWNYAPSGIDIFTKENLTAPGSDSAVFFEQGTTRIGGSYKKLVYREYTDASFTNRKERGPEEEHLGILGPVIWAEVGDTIRVTFHNKGAYPLSIEPIGVRFNKNNEGTYYSPNYNPQSRSVPPSASHVAPTETFTYEWTVPKEVGPTNADPVCLAKMYYSAVEPTKDIFTGLIGPMKICKKGSLHANGRQKDVDKEFYLFPTVFDENESLLLEDNIRMFTTAPDQVDKEDEDFQESNKMHSMNGFMYGNQPGLTMCKGDSVVWYLFSAGNEADVHGIYFSGNTYLWRGERRDTANLFPQTSLTLHMWPDTEGTFNVECLTTDHYTGGMKQKYTVNQCRRQSEDSTFYLGERTYYIAAVEVEWDYSPQREWEKELHHLQEQNVSNAFLDKGEFYIGSKYKKVVYRQYTDSTFRVPVERKAEEEHLGILGPQLHADVGDKVKIIFKNMATRPYSIHAHGVQTESSTVTPTLPGETLTYVWKIPERSGAGTEDSACIPWAYYSTVDQVKDLYSGLIGPLIVCRRPYLKVFNPRRKLEFALLFLVFDENESWYLDDNIKTYSDHPEKVNKDDEEFIESNKMHAINGRMFGNLQGLTMHVGDEVNWYLMGMGNEIDLHTVHFHGHSFQYKHRGVYSSDVFDIFPGTYQTLEMFPRTPGIWLLHCHVTDHIHAGMETTYTVLQNEDTKSG
effect of CP on the fluorescence intensity decrease of FAM-Aβ42 [3]: considerably attenuated
